Read-outs that look alike come from different tables or passages of the source.
Columns and labels:
[1] = target: endogenous TFPI in human plasma (human), P10646; test: cell-based or functional assay
[2] = target: endogenous TFPI in human plasma (human), P10646; test: cell-based or functional assay; remark: listed apart in the source

B1: TFPI-24 (antibody, human IgG1, lambda)
light: not shown
heavy: EVQLVESGGGSVQPGRSLRLSCAVSGLTIDNYAMQWVRQRPGKGLEWVSGISGNSRSIGYADSVKGRLTISRDNAKNSLYLQIDSLRADDTALYYCAIFLHESDYWGQGTLVTVSSASTKGPSVFPLAPSSKSTSGGTAALGCLVKDYFPEPVTVSWNSGALTSGVHTFPAVLQSSGLYSLSSVVTVPSSSLGTQTYICNVNHKPSNTKVDKKVEPKSCDKTHTCPPCPAPEAAGAPSVFLFPPKPKDTLMISRTPEVTCVVVDVSHEDPEVKFNWYVDGVEVHNAKTKPREEQYNSTYRVVSVLTVLHQDWLNGKEYKCKVSNKALPAPIEKTISKAKGQPREPQVYTLPPSREEMTKNQVSLTCLVKGFYPSDIAVEWESNGQPENNYKTTPPVLDSDGSFFLYSKLTVDKSRWQQGNVFSCSVMHEALHNHYTQKSLSLSPG
With B1 as the binder, how does the TGA Velocity Index at 20 nM [1] read?
Its TGA Velocity Index at 20 nM is 23.2.

What about the dilute prothrombin time EC50 [1] of the same binder?
Its dilute prothrombin time EC50 is 0.57 nM.

B2: TFPI-118 (antibody, human IgG1, lambda)
light: not shown
heavy: EVQLVESGGGLVQPGRSLRLSCAVSGLTIDNYAMQWVRQAPGKGLEWVSGISGNSRSIGYADSVKGRFTISRDNAKNSLYLQMNSLRAEDTALYYCAIFLHESDYWGQGTLVTVSSASTKGPSVFPLAPSSKSTSGGTAALGCLVKDYFPEPVTVSWNSGALTSGVHTFPAVLQSSGLYSLSSVVTVPSSSLGTQTYICNVNHKPSNTKVDKKVEPKSCDKTHTCPPCPAPEAAGAPSVFLFPPKPKDTLMISRTPEVTCVVVDVSHEDPEVKFNWYVDGVEVHNAKTKPREEQYNSTYRVVSVLTVLHQDWLNGKEYKCKVSNKALPAPIEKTISKAKGQPREPQVYTLPPSREEMTKNQVSLTCLVKGFYPSDIAVEWESNGQPENNYKTTPPVLDSDGSFFLYSKLTVDKSRWQQGNVFSCSVMHEALHNHYTQKSLSLSPG
For B2, which Dilute PT EC50 [1] is on record?
The Dilute PT EC50 was 1.16 nM.

And the TGA Velocity EC50 [1]?
Its TGA Velocity EC50 is 7.72 nM.

What about the dilute prothrombin time EC50 [1] of the same binder?
The dilute prothrombin time EC50 was 1.16 nM.

B3: hz4D8 (antibody, human IgG1, kappa)
light: DIQMTQSPSSLSASVGDRVTITCKASQDVHTAVAWYQQKPGKAPKLLIYWASTRHTGVPSRFSGSGSGTDYTLTISSLQPEDFATYYCQQHYTTPYTFGQGTKLEIKRTVAAPSVFIFPPSDEQLKSGTASVVCLLNNFYPREAKVQWKVDNALQSGNSQESVTEQDSKDSTYSLSSTLTLSKADYEKHKVYACEVTHQGLSSPVTKSFNRGEC
heavy: EVQLVESGGGLVQPGGSLRLSCAASGYTFTDYNLDWVRQAPGKGLEWVADINPINGATLYNQKFKGRFTISRDQAKNSLYLQMNSLRAEDTAVYYCARYYGDYDAMDYWGQGTLVTVSSASTKGPSVFPLAPSSKSTSGGTAALGCLVKDYFPEPVTVSWNSGALTSGVHTFPAVLQSSGLYSLSSVVTVPSSSLGTQTYICNVNHKPSNTKVDKKVEPKSCDKTHTCPPCPAPEAAGAPSVFLFPPKPKDTLMISRTPEVTCVVVDVSHEDPEVKFNWYVDGVEVHNAKTKPREEQYNSTYRVVSVLTVLHQDWLNGKEYKCKVSNKALPAPIEKTISKAKGQPREPQVYTLPPSREEMTKNQVSLTCLVKGFYPSDIAVEWESNGQPENNYKTTPPVLDSDGSFFLYSKLTVDKSRWQQGNVFSCSVMHEALHNHYTQKSLSLSPG
What does the source list for B3?
Dilute PT EC50 [1]: 0.47 nM; TGA Velocity EC50 [1]: 3.9 nM; TGA Velocity Index at 20 nM [1]: 15.7; dilute prothrombin time EC50 [1]: 0.47 nM

B4: 7A4.D9 (antibody, mouse IgG1, kappa)
light: DIVLTQSPASLAVSLGQRATISCRASKSVSTSGYTYMHWYQQKPGQPPKLLIYLASNLESGVPARFSGSGSGTDFTLNIHPVEEEDAAAYYCQHIRELPFTFGSGTKLEIKADAAPTVSIFPPSSEQLTSGGASVVCFLNNFYPKDINVKWKIDGSERQNGVLNSWTDQDSKDSTYSMSSTLTLTKDEYERHNSYTCEATHKTSTSPIVKSFNRNEC
heavy: EVQLQQSGPELVKPGASVKMSCKASGYTFTSYVMHWVKQKPGQGLEWIGYLNPYNDGTKYNEKFKGKASLISDKSSSTVYMELSSLTSEDSAVYYCATTLLYAMDYWGQGSSVTVSSAKTTPPSVYPLAPGSAAQTNSMVTLGCLVKGYFPEPVTVTWNSGSLSSGVHTFPAVLQSDLYTLSSSVTVPSSTWPSETVTCNVAHPASSTKVDKKIVPRDCGCKPCICTVPEVSSVFIFPPKPKDVLTITLTPKVTCVVVDISKDDPEVQFSWFVDDVEVHTAQTQPREEQFNSTFRSVSELPIMHQDWLNGKEFKCRVNSAAFPAPIEKTISKTKGRPKAPQVYTIPPPKEQMAKDKVSLTCMITDFFPEDITVEWQWNGQPAENYKNTQPIMDTDGSYFVYSKLNVQKSNWEAGNTFTCSVLHEGLHNHHTEKSLSHSPGK
For B4, which TGA Velocity Index at 20 nM [2] is on record?
Its TGA Velocity Index at 20 nM is 23.3.

B5: 2A8-200 (antibody, human IgG1, lambda)
light: DIELTQPPSVSVAPGQTARISCSGDNLRNYYAHWYQQKPGQAPVVVIFYDVNRPSGIPERFSGSNSGNTATLTISGTQAEDEADYYCQSWWDGVPVFGGGTKLTVLGQPKAAPSVTLFPPSSEELQANKATLVCLISDFYPGAVTVAWKADSSPVKAGVETTTPSKQSNNKYAASSYLSLTPEQWKSHRSYSCQVTHEGSTVEKTVAPTECS
heavy: QVQLVESGGGLVQPGGSLRLSCAASGFTFRSYGMDWVRQAPGKGLEWVSSIRGSRSSTYYADSVKGRFTISRDNSKNTLYLQMNSLRAEDTAVYYCARLYRYWFDYWGQGTLVTVSSASTKGPSVFPLAPSSKSTSGGTAALGCLVKDYFPEPVTVSWNSGALTSGVHTFPAVLQSSGLYSLSSVVTVPSSSLGTQTYICNVNHKPSNTKVDKKVEPKSCDKTHTCPPCPAPEAAGAPSVFLFPPKPKDTLMISRTPEVTCVVVDVSHEDPEVKFNWYVDGVEVHNAKTKPREEQYNSTYRVVSVLTVLHQDWLNGKEYKCKVSNKALPAPIEKTISKAKGQPREPQVYTLPPSREEMTKNQVSLTCLVKGFYPSDIAVEWESNGQPENNYKTTPPVLDSDGSFFLYSKLTVDKSRWQQGNVFSCSVMHEALHNHYTQKSLSLSPG
How did the Dilute PT EC50 [1] turn out when B5 was run?
Its Dilute PT EC50 is 1 nM.

B6: 4D8.b1 (antibody, mouse IgG1, kappa)
light: DIVMTQSHKFMSTSVGDRVSITCKASQDVHTAVAWYQQKPGQSPRLLIYWASTRHTGVPDRFTGCGSGTDYTLTISSVQAEDLALYYCQQHYTTPYTFGGGTKLEMKADAAPTVSIFPPSSEQLTSGGASVVCFLNNFYPKDINVKWKIDGSERQNGVLNSWTDQDSKDSTYSMSSTLTLTKDEYERHNSYTCEATHKTSTSPIVKSFNRNEC
heavy: EVLLQQSGPELVKPGASVKIPCKASGYTFTDYNLDWVKQSHGKSLEWIGDINPINGATLYNQKFKGKATLTVDQSSSTAYMELRSLTSEDTAVYYCSIYYGDYDAMDYWGQGASVTVSSAKTTPPSVYPLAPGSAAQTNSMVTLGCLVKGYFPEPVTVTWNSGSLSSGVHTFPAVLQSDLYTLSSSVTVPSSTWPSETVTCNVAHPASSTKVDKKIVPRDCGCKPCICTVPEVSSVFIFPPKPKDVLTITLTPKVTCVVVDISKDDPEVQFSWFVDDVEVHTAQTQPREEQFNSTFRSVSELPIMHQDWLNGKEFKCRVNSAAFPAPIEKTISKTKGRPKAPQVYTIPPPKEQMAKDKVSLTCMITDFFPEDITVEWQWNGQPAENYKNTQPIMDTDGSYFVYSKLNVQKSNWEAGNTFTCSVLHEGLHNHHTEKSLSHSPGK
B6 was tested. Which TGA Velocity Index at 20 nM [2] did it give?
Its TGA Velocity Index at 20 nM is 26.3.

And the TGA Velocity Index at 20 nM [1]?
Its TGA Velocity Index at 20 nM is 13.5.

B7: 6B7.c5 (antibody, mouse IgG1, kappa)
light: DIVMTQSHKFMSTSVGDRVSITCKASQDVITAVAWYQQKPGQSPKLLIYWASTRHTGVPVRFTGSGSGTDYTLTIISVQAEDLALYYCQQHYSTPYTFGGGTKLEIKADAAPTVSIFPPSSEQLTSGGASVVCFLNNFYPKDINVKWKIDGSERQNGVLNSWTDQDSKDSTYSMSSTLTLTKDEYERHNSYTCEATHKTSTSPIVKSFNRNEC
heavy: EVLLQQSGPELVKPGSSVKIPCKASGYTFTDYTMDWVKQSHGKSLEWIGDINPSNGGSIYNRKFKGKATLTVDKSSSTAYMELRSLTSEDTAVYYCARMHYNYDGFPYWGQGTLVTVSAAKTTPPSVYPLAPGSAAQTNSMVTLGCLVKGYFPEPVTVTWNSGSLSSGVHTFPAVLQSDLYTLSSSVTVPSSTWPSETVTCNVAHPASSTKVDKKIVPRDCGCKPCICTVPEVSSVFIFPPKPKDVLTITLTPKVTCVVVDISKDDPEVQFSWFVDDVEVHTAQTQPREEQFNSTFRSVSELPIMHQDWLNGKEFKCRVNSAAFPAPIEKTISKTKGRPKAPQVYTIPPPKEQMAKDKVSLTCMITDFFPEDITVEWQWNGQPAENYKNTQPIMDTDGSYFVYSKLNVQKSNWEAGNTFTCSVLHEGLHNHHTEKSLSHSPGK
B7 was tested. Which TGA Velocity Index at 20 nM [2] did it give?
Its TGA Velocity Index at 20 nM is 23.5.

Source: patent US20210101998A1
